Reference: patent US10500174B2, “Pharmaceutical composition for preventing or treating degenerative brain disease” (SOONCHUNHYANG UNIVERSITY INDUSTRY ACADEMY COOPERATION …, priority 2016, dated 2019)

What was measured:
HeLa cells = assay: Evaluation of cellular uptake of ibuprofen conjugate (confocal fluorescence); assay type: cell-based; settings: 10 μM, 37° C., 30 min, confocal laser scanning microscope
Method: HeLa cells were cultured at 37° C. in wet air containing 5% CO2 in a DMEM (high-glucose Dulbecco's Modified Eagle's Medium) containing penicillin-added 10% (v/v) FBS (fetal bovine serum). Subculturing was performed every 2 to 3 days until the cells became subconfluent.
HeLa cells (1×10^5 cells per well) were seeded on a 35 mm coverglass dish (SPL Ltd., Korea) and cultured for 24 hr, after which the medium was removed, and the HeLa cells were washed with cold PBS (×1) (Dulbecco's phosphate buffered saline, pH 7.4). The resulting cells were cultured at 37° C. for 30 min in 3 ml of DMEM containing 10 μM Compound 8 or 10 μM Compound 9, after which the medium was removed, and the HeLa cells were washed five times with cold PBS. The intracellular internalization and intracellular localization of the compound were investigated through fluorescence, achieved using fluorescein, using a confocal laser scanning microscope (Olympus Fluoview FV1000, N.A. 1.30, 40×, planApo, oil immersion lens). The fluorescence of FITC was analyzed at an excitation wavelength of 488 nm and an emission wavelength of 500 to 530 nm, and all experiments were performed three times.

[1] = Plasma stability test (HPLC); assay type: in vitro ADME; settings: human plasma, 37° C.
Method: In order to evaluate plasma stability, a homogeneous solution of Compound 8 ([…]) was prepared. An aliquot thereof was injected into the plasma (human, Sigma, USA) so as to reach a final concentration of 50 μg/ml, followed by vortexing and culturing at 37° C. for 0, 3, 6, 9, 12, 15, 18, 21 and 24 hr. The plasma solution (200 μl) was then mixed with 1 ml of MeOH to prevent hydrolysis of Compound 8. This solution was added with biotin (internal standard) in distilled water (100 μl, 5 μg/ml) and centrifuged at 2000 rpm for 10 min. The supernatant was collected and dried in air. The residue was dissolved in distilled water (2 ml) and centrifuged at 2000 rpm for 10 min. The supernatant thus obtained was analyzed using HPLC through the following method.
10 μl of the clean supernatant obtained through the above method was introduced into the HPLC system. The UV detector was set at 260 nm and the flow rate was 1.0 ml/min for a running time of 10 to 15 min. The isocratic mobile phase system consisted of MeOH/H2O (30/70), and the column oven was maintained at 37° C. using a C18-column (Agilent, ZORBAX, 4.6×250 mm, 5 μm).
HPLC chromatograms were obtained at each interval, and the remaining amount of Compound 8 was calculated and expressed as a percentage by subtracting the concentration of ibuprofen, released based on the area under the curve, from the sum of the initial concentration of Compound 8 and the internal standard.

[2] = In-vivo distribution in mouse tissue (fluorescence imaging of tissue flakes); settings: 94.6 mg kg^−1 intraperitoneal, after 20 min
Method: After 20 min, the mice administered with the above solution were perfused with PBS (pH 7.4) containing paraformaldehyde (4%), and the main organs (brain, heart, lungs, kidneys, spleen and liver) thereof were cultured overnight in PBS (phosphate buffered saline) containing sucrose (0.5 M). A cryoprotectant was added thereto and the above tissue was cut into 15 μm flakes using a cryostat, transferred to a coated slide glass and then dried. Each flake was washed with PBS, treated with Triton X-100 (0.3%) at room temperature for 15 min, and analyzed using an Axioplan2 fluorescence imaging microscope. As a control, deionized water (500 μl) was injected into other mice, and the same procedures as above were performed, after which the compound represented by green fluorescence of FITC in each tissue was compared with autofluorescence of the control.

distribution in brain (green fluorescence of FITC) [2] | Compound | cellular uptake / intracellular FITC fluorescence (HeLa cells) | hydrolysis relative to the initial time (0 hr) ([1]; 50 μg/ml, after culture for 3 hr) | decrease of the amount remaining ([1]; 50 μg/ml, next culture time of 21 hr (3 to 24 hr)) | half-life and stability in the plasma (in words) ([1]; up to 24 hr)
– | CC(C)Cc1ccc(C(C)C(=O)NCC(=O)OC[C@H](OC(=O)CCCCCN(CCCNC(=N)N)CCCNC(=N)N)[C@@H](OC(=O)CCCCCN(CCCNC(=N)N)CCCNC(=N)N)[C@H](OC(=O)CCCCCN(CCCNC(=N)N)CCCNC(=N)N)[C@@H](COC(=O)CCCCCNC(=S)Nc2ccc3c(c2)C(=O)OC32c3ccc(O)cc3Oc3cc(O)ccc32)OC(=O)CCCCCN(CCCNC(=N)N)CCCNC(=N)N)cc1.Cl.Cl.Cl.Cl.Cl.Cl.Cl.Cl (stereo partly drawn) [Compound 8, 1-O-(2-aminoacetoxy-ibuprofen)-2,3,4,5-tetra-O—[N-{bis-(3-guanidinopropyl)}-6-aminohexanoyl]-6-O-[6-(fluoresceinyl-5-thioureido)-hexanoyl]-D-sorbitol 8HCl] | strong green fluorescence that is predominant in the cytoplasm | about 5% | ~8% | long half-life and considerable stability
not distributed in the brain | fluoresceinyl (S)-2-(2-(4-isobutylphenyl)propanamido)-acetate [Compound 9] | did not show fluorescence in the cells | – | – | –
